B1: NET1 (parent)
chain: PTPAKRRSSALWSEMLDITMKESL

Variants of: B1
Test: protein stability index of a GFP-peptide fusion (GPS, HEK-293T) (PSI 1-6); higher = more stable
Conditions: c terminus: a fixed tail appended
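Further: lentivirally expressed fusions sorted by FACS into six bins by GFP to DsRed ratio, PSI derived from sequencing read proportions per bin multiplied by bin number.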

Point of comparison: PTPAKRTSSALWSEMLDITMKESL, protein stability index 2.16. Against it:
- PTPNKRRSSALWSEMLDITMKESL — lower, 2.07
- PTPGKRRSSALWSEMLDITMKESL — higher, 2.3
- PTPVKRRSSALWSEMLDITMKESL — higher, 2.21
- PTPLKRRSSALWSEMLDITMKESL — lower, 1.85
- PTPEKRRSSALWSEMLDITMKESL — higher, 2.48
- PTPYKRRSSALWSEMLDITMKESL — lower, 1.82
- PTPAKRRSSALWSEMLDSTMKESL — higher, 2.77
- PTPAKRRSSALWSEMLDFTMKESL — higher, 2.46
- PTPAKRRSSALWSEMLDHTMKESL — higher, 2.53
- PTPAKRRSSALWSEMLDCTMKESL — lower, 2
- PTPAKRRSSALWSEMLDNTMKESL — higher, 2.41
- PTPAKRRSSALWSEMLDETMKESL — higher, 2.9
- PTPAKRRSSALWSEMLDTTMKESL — higher, 2.62
- PTPAKRRSSALWSEMLDRTMKESL — higher, 2.84
- PTPAKRRSSALWSEMLDVTMKESL — higher, 3.12
- PTPAKRRSSALPSEMLDITMKESL — higher, 3.9
- PTPAKRRSSALDSEMLDITMKESL — higher, 5.38
- PTPAKRRSSALHSEMLDITMKESL — higher, 3.62
- PTPAKRRSSALNSEMLDITMKESL — higher, 4.79
- PTPAKRRSSALYSEMLDITMKESL — higher, 2.78
- PTPAKRRSSALCSEMLDITMKESL — higher, 4.32
- PTPAKRRSSALKSEMLDITMKESL — higher, 3.74
- PTPAKRRSSALGSEMLDITMKESL — higher, 4.59
- PTPAKRRSSALASEMLDITMKESL — higher, 4.09
- PTPAKRRSSALMSEMLDITMKESL — higher, 3.51
- PTPAKRRSSALFSEMLDITMKESL — higher, 3.26
- PQPAKRRSSALWSEMLDITMKESL — higher, 2.33
- PWPAKRRSSALWSEMLDITMKESL — lower, 1.5
- PKPAKRRSSALWSEMLDITMKESL — lower, 2.15
- PHPAKRRSSALWSEMLDITMKESL — higher, 2.85
- PDPAKRRSSALWSEMLDITMKESL — higher, 2.73
- PGPAKRRSSALWSEMLDITMKESL — lower, 2.06
- PIPAKRRSSALWSEMLDITMKESL — higher, 2.26
- PMPAKRRSSALWSEMLDITMKESL — lower, 2.11
- PRPAKRRSSALWSEMLDITMKESL — higher, 2.34
- PTPAKRQSSALWSEMLDITMKESL — higher, 2.54
- PTPAKRWSSALWSEMLDITMKESL — higher, 2.36
- PTPAKRNSSALWSEMLDITMKESL — higher, 2.85
- PTPAKRVSSALWSEMLDITMKESL — higher, 2.46
- PTPAKRGSSALWSEMLDITMKESL — higher, 2.38
- PTPAKRDSSALWSEMLDITMKESL — higher, 3.36
- PTPAKRESSALWSEMLDITMKESL — higher, 2.8
- PTPAKRRSSALWSEMQDITMKESL — higher, 2.92
- PTPAKRRSSALWSEMIDITMKESL — higher, 2.84
- PTPAKRRSSALWSEMSDITMKESL — higher, 3.17
- PTPAKRRSSALWSEMTDITMKESL — higher, 2.85
- PTPAKRRSSALWSEMMDITMKESL — higher, 2.2
- PTPAKRRSSALWSEMHDITMKESL — higher, 2.85
- PTPAKRRSSALWSEMYDITMKESL — higher, 2.19
- PTPAKRRSSALWSYMLDITMKESL — higher, 2.2
- PTPAKRRSSALWSTMLDITMKESL — lower, 1.93
- PTPAKRRSSALWSHMLDITMKESL — higher, 2.2
- PTPAKRRSSALWSPMLDITMKESL — higher, 3.15
- PTPAKRRSSALWSCMLDITMKESL — lower, 1.15
- PTPAKRRESALWSEMLDITMKESL — higher, 2.63
- PTPAKRRTSALWSEMLDITMKESL — higher, 2.9
- PTPAKRRYSALWSEMLDITMKESL — higher, 2.28
- PTPAKRRQSALWSEMLDITMKESL — higher, 2.33
- PTPAKRRRSALWSEMLDITMKESL — lower, 1.65
- PTPAKRRMSALWSEMLDITMKESL — lower, 1.59
- STPAKRRSSALWSEMLDITMKESL — lower, 1.45
- TTPAKRRSSALWSEMLDITMKESL — lower, 1.67
- QTPAKRRSSALWSEMLDITMKESL — higher, 2.78
- ITPAKRRSSALWSEMLDITMKESL — lower, 2.07
- NTPAKRRSSALWSEMLDITMKESL — higher, 2.33
- LTPAKRRSSALWSEMLDITMKESL — higher, 2.25
- ATPAKRRSSALWSEMLDITMKESL — higher, 2.56
- MTPAKRRSSALWSEMLDITMKESL — lower, 1.72
- HTPAKRRSSALWSEMLDITMKESL — higher, 3.04
- PTPAKRRSSAHWSEMLDITMKESL — higher, 3.62
- PTPAKRRSSANWSEMLDITMKESL — higher, 3.5
- PTPAKRRSSACWSEMLDITMKESL — higher, 2.2
- PTPAKRRSSAVWSEMLDITMKESL — higher, 3.16
- PTPAKRRSSATWSEMLDITMKESL — lower, 1.71
- PTPAKRRSSASWSEMLDITMKESL — lower, 1.94
- PTPAKRRSSAQWSEMLDITMKESL — higher, 2.27
- PTPAKRRSSAKWSEMLDITMKESL — lower, 1.62
- PTPAKRRSSALWPEMLDITMKESL — higher, 2.71
- PTPAKRRSSALWHEMLDITMKESL — higher, 2.88
- PTPAKRRSSALWFEMLDITMKESL — lower, 1.75
- PTPAKRRSSALWWEMLDITMKESL — higher, 3.21
- PTPAKRRSSALWMEMLDITMKESL — higher, 2.64
- PTPAKRRSSALWNEMLDITMKESL — higher, 2.49
- PTDAKRRSSALWSEMLDITMKESL — higher, 2.32
- PTWAKRRSSALWSEMLDITMKESL — higher, 3.24
- PTLAKRRSSALWSEMLDITMKESL — lower, 2.1
- PTEAKRRSSALWSEMLDITMKESL — higher, 2.25
- PTHAKRRSSALWSEMLDITMKESL — lower, 2.05
- PTIAKRRSSALWSEMLDITMKESL — higher, 2.49
- PTGAKRRSSALWSEMLDITMKESL — higher, 2.27
- PTKAKRRSSALWSEMLDITMKESL — higher, 2.44
- PTQAKRRSSALWSEMLDITMKESL — higher, 2.39
- PTTAKRRSSALWSEMLDITMKESL — higher, 2.21
